Source: patent US20250101098A1 (R P SCHERER TECHNOLOGIES, published 2025)

T1: cynomolgus Nectin-4 His tagged (cynomolgus, UniProt A0A2K5WES1 32-349)
T1 construct: also called Ag2
T1 sequence: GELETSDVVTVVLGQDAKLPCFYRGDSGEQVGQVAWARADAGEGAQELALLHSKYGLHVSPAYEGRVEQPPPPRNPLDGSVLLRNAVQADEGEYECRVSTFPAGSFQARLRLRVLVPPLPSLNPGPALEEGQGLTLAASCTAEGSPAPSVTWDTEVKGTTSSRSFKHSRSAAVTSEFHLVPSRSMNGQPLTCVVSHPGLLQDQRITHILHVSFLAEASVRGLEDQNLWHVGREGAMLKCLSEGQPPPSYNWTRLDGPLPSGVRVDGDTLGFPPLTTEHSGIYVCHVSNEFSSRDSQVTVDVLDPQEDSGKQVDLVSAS

T2: recombinant human Nectin-4-His protein (human, UniProt Q96NY8 32-349)
T2 construct: Rescreening antigen and bought ELISA antigen are treated as one molecule; also called human Nectin-4-His tagged; Ag1; not shown: His tag
T2 sequence: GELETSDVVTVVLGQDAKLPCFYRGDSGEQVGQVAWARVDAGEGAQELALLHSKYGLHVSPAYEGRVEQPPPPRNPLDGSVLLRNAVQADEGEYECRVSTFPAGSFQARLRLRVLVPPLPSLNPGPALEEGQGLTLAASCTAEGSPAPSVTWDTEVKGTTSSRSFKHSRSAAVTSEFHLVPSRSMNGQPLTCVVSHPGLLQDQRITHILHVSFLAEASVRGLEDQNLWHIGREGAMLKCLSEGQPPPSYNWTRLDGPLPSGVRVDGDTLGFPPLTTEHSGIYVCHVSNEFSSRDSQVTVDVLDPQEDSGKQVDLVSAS

T3: human nectin-4 protein expressed on the surface of cells (human, UniProt Q96NY8 32-510)
T3 construct: also called HEK 293 cells overexpressing human nectin-4; HekNectin4
T3 sequence: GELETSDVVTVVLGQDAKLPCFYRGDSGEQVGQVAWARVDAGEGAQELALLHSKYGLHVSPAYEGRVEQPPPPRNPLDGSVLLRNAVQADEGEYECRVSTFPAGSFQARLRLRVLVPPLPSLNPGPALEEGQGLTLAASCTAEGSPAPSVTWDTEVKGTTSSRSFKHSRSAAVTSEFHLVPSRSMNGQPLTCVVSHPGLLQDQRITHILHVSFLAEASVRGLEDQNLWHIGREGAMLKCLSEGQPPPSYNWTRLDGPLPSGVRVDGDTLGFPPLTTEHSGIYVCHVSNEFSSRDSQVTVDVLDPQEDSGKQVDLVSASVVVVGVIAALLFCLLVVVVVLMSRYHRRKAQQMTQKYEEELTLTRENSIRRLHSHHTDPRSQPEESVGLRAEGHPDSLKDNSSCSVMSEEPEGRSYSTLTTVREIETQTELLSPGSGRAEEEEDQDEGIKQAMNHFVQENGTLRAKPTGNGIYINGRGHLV

T4: cynomolgus monkey nectin-4 protein expressed on the surface of HEK 293 cells (cynomolgus monkey, UniProt A0A2K5WES1 32-510)
T4 construct: whole, on cells
T4 sequence: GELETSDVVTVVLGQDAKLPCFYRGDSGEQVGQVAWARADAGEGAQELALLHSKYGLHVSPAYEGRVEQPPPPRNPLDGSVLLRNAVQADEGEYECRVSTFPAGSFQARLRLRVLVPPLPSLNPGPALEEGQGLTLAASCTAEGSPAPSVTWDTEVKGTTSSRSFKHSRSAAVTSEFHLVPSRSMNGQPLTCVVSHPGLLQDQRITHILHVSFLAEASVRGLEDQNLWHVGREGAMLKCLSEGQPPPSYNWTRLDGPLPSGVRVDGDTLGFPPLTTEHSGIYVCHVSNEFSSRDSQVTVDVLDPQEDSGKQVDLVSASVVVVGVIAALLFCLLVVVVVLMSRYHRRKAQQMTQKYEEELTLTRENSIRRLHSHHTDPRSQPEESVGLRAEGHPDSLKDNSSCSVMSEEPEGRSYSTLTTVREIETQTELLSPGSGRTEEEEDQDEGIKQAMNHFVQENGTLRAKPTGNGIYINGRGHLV


Assays:
[1] = target: T1, cynomolgus Nectin-4 His tagged; test: ELISA, hybridoma supernatant
[2] = target: T2, recombinant human Nectin-4-His protein; test: ELISA, hybridoma supernatant
[3] = target: T2, recombinant human Nectin-4-His protein; test: ELISA, recombinant antibody on coated antigen
[4] = target: T3, human nectin-4 protein expressed on the …; test: flow cytometry, HEK 293 cells overexpressing the target
Description: (§1) Human embryonic kidney (HEK) 293 cells overexpressing human, cynomolgus monkey, rat, or mouse nectin-4 protein were produced. Cells were lifted with Versene to preserve cell surface proteins and were resuspended at 10e6/mL in PBS+2% FBS. 100 μl was added to a flow tube to test […]. Primary antibodies were diluted to […] and 10 μL was added for a total of 1 μg/test. Primary antibodies (or ADCs) were incubated with cells for 1 h on ice. Then, cells were washed 1× in 2 mL PBS+2% FBS and secondary antibody was added for detection. AF488-conjugated anti-human antibody from Jackson Immunoresearch, diluted according to the manufacturer's instructions+50% glycerol, was used at 1 μL/test-diluted to ⅕ the concentration in PBS+2% FBS and 5 μL were added per tube. The secondary reagent was incubated with the cells for 30 min, then cells were washed 2× in PBS+2% FBS and analyzed by flow cytometry on a BD FacsCanto instrument equipped with FACSDiva software.
(§2) Lead clones were tested for binding to human, cynomolgus monkey, rat, or mouse nectin-4 protein expressed on the surface of HEK 293 cells. Enfortumab was included as a positive control and an anti-FITC reactive antibody was included as a negative control.

[5] = target: T4, cynomolgus monkey nectin-4 protein …; test: as above
Description: as §1, §2

[6] = target: T3, human nectin-4 protein expressed on the …; test: cell-based or functional assay
[7] = target: T3, human nectin-4 protein expressed on the …; test: cell-based or functional assay; remark: listed apart in the source
[8] = target: T2, recombinant human Nectin-4-His protein; test: ELISA, coated antigen

| Binder | ELISA signal [1] | ELISA signal [2] | Cell kill IC50, HekNectin4 [7] [nM] | Cell kill IC50, MDA-MB468 [7] [nM] | Cell kill IC50, SKBR3 [7] [nM] | EC50 [8] [nM] | also measured |
| --- | --- | --- | --- | --- | --- | --- | --- |
| Nectin-4 Hybridoma 6C8H/6C8L (hybridoma supernatant) (antibody, V domains shown, Mouse antibody in hybridoma supernatant) VH: QVQLKQSGPGLVQPSQSLSITCTVSGFSLSTYGVHWVRQSPGKGLEWLGVIWSGGSTDYNAAFISRLTISKDNSKSQIFFKMNSLQADDTAIYYCARMMSWYFDVWGTGTTVTVSS VL: DIVMTQSQKFMSTSVGDRVSVTCKASQNVVTNVAWYQQKPGQSPKALIYSASYRYSGVPDRFTGSGSGTDFTLTISNVQSEDLAEYFCQQYNSYPLTFGAGTKLELK | 3.4 | 3.16 | – | – | – | – | – |
| Nectin-4 7 E8H/7 E8L (hybridoma supernatant) (antibody, V domains shown, Mouse antibody in hybridoma supernatant) VH: QVQLKQSGPGLVQPSQSLSITCTVSGFSLATYGVHWVRQSPGKGLEWLGVIWSGGSTDYNAAFISRLSISKDNSKSQVFFKMNSLQADDTAIYYCARNSHWYFDVWGTGTTVTVSS VL: DIVMTQSQKFMSTSVGDRVSVTCKASQNVVTNVAWYQQKPGQSPKALIYSASYRYSGVPDRFTGSGSGTDFTLTISHVQSEDLAEYFCHQYNNYPYTFGGGTKLEIK | 3.44 | 3.11 | – | – | – | – | – |
| Nectin-4 7H10H/7H10L (recombinant chimeric antibody) (antibody, V domains shown) VH: QVQLQQPGAELVKPGASVKLSCKASGYTFTTYWMHWVKQRPGRGLEWIGGIDPYGAHIKYNEMFKTKATLTVDKPSSTAYMQLSSLTSEDSAVYYCARGDYSNWWWTYWGQGTLVTVSA VL: DIVMTQSQKFMSTTVGDRVSITCKASQNVGTAVAWYQQIPGQSPKLLIYSASNRYTGVPDRFTGSGSGTDFTLTITNMQSEDLADYFCQHYSSYPWTFGGGTKLEIK | – | – | – | – | – | – | EC50 [3]: 0.21 nM; Flow data [4]: 12300; Flow data [5]: 14100; IC50, in vitro potency, HEK Cells + Nectin-4 [6]: 0.549 nM |
| Nectin-4 12E11H/12E11L (hybridoma supernatant) (antibody, V domains shown, Mouse antibody in hybridoma supernatant) VH: QVQLKQSGPGLVQPSQSLSITCTVSGFSLTTYGVHWVRQSPGKGLEWLGVIWSGGSTDCNGAFISRLSIIKDNSKSQVFFKMNSLQADDTAIYYCARMTHWYFDVWGTGTTVTVSS VL: DIVMTQSQKFMSTTVGDRVSITCKASQNVNTAVAWYQQKPGQSPKLLIYSASYRYTGVPDRFTGSGSGTDFTLTISNMQSEDLADYFCQQYSNYPLTFGAGTKLELK | 3.44 | 3.21 | – | – | – | – | – |
| Nectin-4 7H10H/7H10L (hybridoma supernatant) (antibody, V domains shown, Mouse antibody in hybridoma supernatant) VH: QVQLQQPGAELVKPGASVKLSCKASGYTFTTYWMHWVKQRPGRGLEWIGGIDPYGAHIKYNEMFKTKATLTVDKPSSTAYMQLSSLTSEDSAVYYCARGDYSNWWWTYWGQGTLVTVSA VL: DIVMTQSQKFMSTTVGDRVSITCKASQNVGTAVAWYQQIPGQSPKLLIYSASNRYTGVPDRFTGSGSGTDFTLTITNMQSEDLADYFCQHYSSYPWTFGGGTKLEIK | 3.49 | 3.26 | – | – | – | – | – |
| Nectin-4 3C12H/3C12L (hybridoma supernatant) (antibody, V domains shown, Mouse antibody in hybridoma supernatant) VH: QVQLKQSGPGLVQPSQSLSITCTVSGFSLTTYGVHWVRQSPGKGLEWLGVIWSGGNTDYNAAFISRLSISKDNSKSQVFFKMNSLQADDTAIYYCARMTHWYFDVWGTGTTVTVSS VL: DIVMTQSQKFMSTTVGDRVSITCKASQNVVTAVAWYQQKPGQSPKLLIYSASNRYTGVPDRFTGSGSGTDFTLTISYMQSEDLADYFCQQYSSYPLTFGAGTKLELK | 3.45 | 3.2 | – | – | – | – | – |
| Nectin-4 5D9H/5D9L (hybridoma supernatant) (antibody, V domains shown, Mouse antibody in hybridoma supernatant) VH: QVQLKQSGPGLVQPSQSLSITCTVSGFSLTNYGVHWVRQSPGKGLEWLGVIWSGGSTDYNAAFVSRLSISRDNSKSQVFFKMNSLQADDTAIYYCARSGKWYYFDYWGQGTTLTVSS VL: DIQMTQSPASLSVSVGETVTITCRASENIYSNLAWYQQKQGKSPQLLVYAATNLADGVPSRFSGSGSGTQYSLKINSLQSEDFGSYYCQHFWGTPTFGGGTKLEIK | 3.32 | 3.08 | – | – | – | – | – |
| Nectin-4 5D9 VH4/VL2 (antibody, V domains shown, Humanized; also called 5D9 VH variant 4 / 5D9 VL variant 2) VH: QVQLQQSGPGLVKPSETLSLTCTVSGFSLTNYGVHWVRQPPGKGLEWLGVIWSGGSTDYNPSLKSRLTISRDTSKNQVSFKMSSVTAADTAVYYCARSGKWYYFDYWGQGTLVTVSS VL: DIQMTQSPSSLSASVGDTVTITCRASQNIYSNLAWYQQKQGKAPKLLVYAATNLADGVPSRFSGSGSGTDFTLKINSLQPEDFATYYCQHFWGTPTFGGGTKVEIK | – | – | 0.29 | 3.13 | 4.95 | 0.236 | – |
| Nectin-4 5D9 VH5/VL1 (antibody, V domains shown, Humanized; also called 5D9 VH variant 5 / 5D9 VL variant 1) VH: QVQLQESGPGLVKPSETLSLTCTVSGGSLTNYGVHWVRQPPGKGLEWIGVIWSGGSTNYNPSLKSRVTISRDTSKNQVSLKLSSVTAADTAVYYCARSGKWYYFDYWGQGTLVTVSS VL: DIQMTQSPASLSASVGDTVTITCRASQNIYSNLAWYQQKQGKSPQLLVYAATNLADGVPSRFSGSGSGTQYTLKINSLQSEDFGTYYCQHFWGTPTFGGGTKVEIK | – | – | 30.3 | 19 | 13.3 | 33.4 | – |
| Nectin-4 5D9 VH4/VL4 (antibody, V domains shown, Humanized; also called 5D9 VH variant 4 / 5D9 VL variant 4) VH: QVQLQQSGPGLVKPSETLSLTCTVSGFSLTNYGVHWVRQPPGKGLEWLGVIWSGGSTDYNPSLKSRLTISRDTSKNQVSFKMSSVTAADTAVYYCARSGKWYYFDYWGQGTLVTVSS VL: DIQMTQSPSSLSASVGDRVTITCRASENIYSNLAWYQQKPGKAPKLLVYAATNLADGVPSRFSGSGSGTDYTLTISSLQPEDFATYYCQHFWGTPTFGGGTKVEIK | – | – | 0.102 | 3.37 | 9.45 | 0.232 | – |
